Measured values taken from US20170106084A1.

T1: human tau(pS422) fragment SEQ ID NO: 03 (human)
T1 sequence (peptide, phosphoserine at 422 (tau numbering); biotinylated): SIDMVDXPQLATLAD


Target: T1, human tau(pS422) fragment SEQ ID NO: 03 (human)
Test: ELISA, coated antigen

Row | Binder | EC50 [ng/mL]
1 | VH00/VL00 (antibody, V domains shown) VH: QSVEESGGRLVTPGTPLTLTCTVSGFSLSSNAINWVRQAPGKGLEWIGYIAVSGNTYYASWAKGRFTISKASTTVDLKMTSPTAEDTGTYFCGKSNIWGPGTLVTVSL VL: AQVLTQTTSPVSAAVGSTVTISCQSSQSVRTNKLAWFQQKPGQPPKRLIYSASTLDFGVPSRFSASGSGTQFTLTISDVQCDDAATYYCLGYFDCSIADCVAFGGGTEVVVK | 6.3
2 | VH32/VL22 (antibody, V domains shown) VH: EVQVLESGGGLVQPGGSLRLSCAVSGFSLSSNAINWVRQAPGKGLEWVGYIAVSGNTYYASWAKGRFTISRDNSKNTVYLQMNSLRAEDTAVYYCGKSNIWGQGTLVTVSS VL: AQVMTQSPSSLSASVGDRVTITCRSSQSVRTNRLAWFQQKPGQPPKRLIYSASTLDYGVPSRFSGSGSGTEFTLTISSLQPEDFATYYCLGYFDSSADIVAFGGGTKVEIK | 5.6
